Experimental data reported in the supplement of paper PMC9112550, “Optimization of the antimicrobial peptide Bac7 by deep mutational scanning” (BMC Biology, 2022).

System: Escherichia coli TOP10
Assay: shrunken log2 fold change of peptide-encoding DNA abundance (4.5 h post-induction vs induction); higher = less antimicrobial activity (less host growth inhibition)
Conditions: time post-induction: 4.5 h; library: site-saturation at positions 5, 18, 19, 20
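Also: peptides expressed intracellularly from a pBAD plasmid library in pooled LB shake-flask culture, induced with 0.3% L-arabinose, DNA abundance read by NGS, three biological replicates, DESeq2 with apeglm shrinkage.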

Sequence | shrunken log2 fold change
RRIRMRPPRLPRPRPRPTSVPRP | 0.172
RRIRLRPPRLPRPRPRPSSWPRP | -0.0958
RRIRWRPPRLPRPRPRPANTPRP | -0.0364
RRIRMRPPRLPRPRPRPEHHPRP | 0.323
RRIRKRPPRLPRPRPRPEGPPRP | 0.447
RRIRRRPPRLPRPRPRPKASPRP | 0.183
RRIRGRPPRLPRPRPRPQDHPRP | 0.254
RRIRCRPPRLPRPRPRPEMHPRP | 0.304
RRIRTRPPRLPRPRPRPRMRPRP | 0.753
RRIRNRPPRLPRPRPRPGHNPRP | -0.64
RRIRYRPPRLPRPRPRPCITPRP | -0.00269
RRIRHRPPRLPRPRPRPAESPRP | -0.218
RRIRNRPPRLPRPRPRPCHDPRP | -0.0458
RRIRNRPPRLPRPRPRPFNHPRP | -1.02
RRIRSRPPRLPRPRPRPFYNPRP | -0.54
RRIRERPPRLPRPRPRPHGEPRP | -0.0812
RRIRKRPPRLPRPRPRPCEDPRP | 0.563
RRIRPRPPRLPRPRPRPYIDPRP | -0.331
RRIRHRPPRLPRPRPRPYTEPRP | -0.204
RRIRNRPPRLPRPRPRPMQYPRP | -0.267
RRIRGRPPRLPRPRPRPHVFPRP | 0.162
RRIRTRPPRLPRPRPRPSVEPRP | 0.0926
RRIRGRPPRLPRPRPRPPSDPRP | 1.05
RRIRERPPRLPRPRPRPGDDPRP | -0.152
RRIRWRPPRLPRPRPRPFPVPRP | -0.0948

Sequence | shrunken log2 fold change
RRIRARPPRLPRPRPRPFWLPRP | 0.0704
RRIRCRPPRLPRPRPRPRIVPRP | 0.0193
RRIRGRPPRLPRPRPRPPTMPRP | 0.429
RRIRTRPPRLPRPRPRPPKDPRP | -0.187
RRIRPRPPRLPRPRPRPSKPPRP | 0.0728
RRIRMRPPRLPRPRPRPMCNPRP | -0.00494
RRIRWRPPRLPRPRPRPRKVPRP | 0.302
RRIRKRPPRLPRPRPRPGALPRP | 0.656
RRIRSRPPRLPRPRPRPTMDPRP | -0.262
RRIRVRPPRLPRPRPRPHNAPRP | -0.164
RRIRKRPPRLPRPRPRPVLAPRP | 0.605
RRIRPRPPRLPRPRPRPEHAPRP | 0.197
RRIRQRPPRLPRPRPRPLCTPRP | -0.543
RRIRARPPRLPRPRPRPKRPPRP | 1.03
RRIRHRPPRLPRPRPRPFGGPRP | -0.0398
RRIRDRPPRLPRPRPRPTRFPRP | 0.0657
RRIRTRPPRLPRPRPRPMTHPRP | -0.633
RRIRIRPPRLPRPRPRPVDAPRP | -0.0281
RRIRPRPPRLPRPRPRPHTLPRP | -0.195
RRIRTRPPRLPRPRPRPLKQPRP | 0.0283
RRIRGRPPRLPRPRPRPNGQPRP | 0.386
RRIRHRPPRLPRPRPRPCDQPRP | -0.000946
RRIRCRPPRLPRPRPRPNASPRP | 0.0178
RRIRFRPPRLPRPRPRPQGAPRP | -0.0798
RRIRNRPPRLPRPRPRPFLAPRP | -0.164

Sequence | shrunken log2 fold change
RRIRHRPPRLPRPRPRPCFVPRP | 0.0216
RRIRTRPPRLPRPRPRPGWLPRP | 0.445
RRIRFRPPRLPRPRPRPYNDPRP | -0.641
RRIRMRPPRLPRPRPRPKLHPRP | 0.325
RRIRSRPPRLPRPRPRPQHTPRP | -0.424
RRIRGRPPRLPRPRPRPHQYPRP | -0.226
RRIRCRPPRLPRPRPRPPPNPRP | 1.27
RRIRKRPPRLPRPRPRPCAGPRP | 0.257
RRIRARPPRLPRPRPRPMNVPRP | -0.163
RRIRWRPPRLPRPRPRPCQIPRP | -0.0592
RRIRFRPPRLPRPRPRPAEFPRP | 1.14
RRIRDRPPRLPRPRPRPSMMPRP | 0.636
RRIRYRPPRLPRPRPRPSLDPRP | -1.07
RRIRSRPPRLPRPRPRPHSYPRP | -0.171
RRIRMRPPRLPRPRPRPKCDPRP | 0.318
RRIRTRPPRLPRPRPRPLRCPRP | 0.108
RRIRLRPPRLPRPRPRPHVQPRP | -0.528
RRIRIRPPRLPRPRPRPQGWPRP | -0.00188
RRIRDRPPRLPRPRPRPQDPPRP | -0.213
RRIRWRPPRLPRPRPRPICEPRP | 0.389
RRIRIRPPRLPRPRPRPDPGPRP | -0.0404
RRIRQRPPRLPRPRPRPCWKPRP | 0.111
RRIRYRPPRLPRPRPRPLYRPRP | -0.335
RRIRARPPRLPRPRPRPHANPRP | -0.0153
RRIRHRPPRLPRPRPRPDSDPRP | 0.0112

Sequence | shrunken log2 fold change
RRIRSRPPRLPRPRPRPCNWPRP | -0.128
RRIRCRPPRLPRPRPRPNQIPRP | -0.367
RRIRNRPPRLPRPRPRPWGWPRP | 0.242
RRIRLRPPRLPRPRPRPRNNPRP | 0.019
RRIRKRPPRLPRPRPRPDDLPRP | 0.0928
RRIRQRPPRLPRPRPRPMPKPRP | 0.128
RRIRLRPPRLPRPRPRPCVHPRP | -0.377
RRIRSRPPRLPRPRPRPHRSPRP | -0.188
RRIRQRPPRLPRPRPRPLEVPRP | -0.0417
RRIRWRPPRLPRPRPRPVMYPRP | -0.0288
RRIRDRPPRLPRPRPRPTQIPRP | 0.114
RRIRHRPPRLPRPRPRPCQYPRP | 0.0163
RRIRCRPPRLPRPRPRPMGQPRP | 0.00321
RRIRFRPPRLPRPRPRPEAHPRP | 0.171
RRIRMRPPRLPRPRPRPWGEPRP | 0.232
RRIRARPPRLPRPRPRPQCMPRP | 0.153
RRIRERPPRLPRPRPRPLVLPRP | -0.333
RRIRYRPPRLPRPRPRPQNPPRP | -0.483
RRIRCRPPRLPRPRPRPMCCPRP | -0.038
RRIRTRPPRLPRPRPRPRNRPRP | -0.0827
RRIRHRPPRLPRPRPRPVGFPRP | -0.203
RRIRERPPRLPRPRPRPDLCPRP | -0.00931
RRIRVRPPRLPRPRPRPPIYPRP | -0.16
RRIRARPPRLPRPRPRPLALPRP | 0.668
RRIRRRPPRLPRPRPRPECWPRP | 0.958

Sequence | shrunken log2 fold change
RRIRKRPPRLPRPRPRPRECPRP | -0.0199
RRIRMRPPRLPRPRPRPRAHPRP | 0.758
RRIRQRPPRLPRPRPRPGWTPRP | 0.286
RRIRMRPPRLPRPRPRPFNYPRP | -0.559
RRIRFRPPRLPRPRPRPNYQPRP | -0.467
RRIRFRPPRLPRPRPRPDDGPRP | -0.0366
RRIRKRPPRLPRPRPRPPDHPRP | 0.973
RRIRKRPPRLPRPRPRPLHWPRP | 0.59
RRIRPRPPRLPRPRPRPHPDPRP | -0.0791
RRIRKRPPRLPRPRPRPDRGPRP | 0.0561
RRIRWRPPRLPRPRPRPEHEPRP | 0.623
RRIRWRPPRLPRPRPRPRKFPRP | 0.295
RRIRGRPPRLPRPRPRPHESPRP | 0.784
RRIRFRPPRLPRPRPRPSVFPRP | -0.165
RRIRGRPPRLPRPRPRPDKGPRP | 0.00725
RRIRARPPRLPRPRPRPAPCPRP | 0.638
RRIRDRPPRLPRPRPRPANDPRP | -0.176
RRIRERPPRLPRPRPRPDGKPRP | 0.00926
RRIRLRPPRLPRPRPRPYKDPRP | -0.269
RRIRWRPPRLPRPRPRPCIHPRP | -0.0458
RRIRPRPPRLPRPRPRPHHEPRP | -0.066
RRIRPRPPRLPRPRPRPCRMPRP | -0.0012
RRIRLRPPRLPRPRPRPMQGPRP | -0.0711
RRIRYRPPRLPRPRPRPYWEPRP | -0.0328
RRIRWRPPRLPRPRPRPLWNPRP | 0.169
